{
  "source": "paper PMC11344848",
  "about": "“Proximity-driven site-specific cyclization of phage-displayed peptides” (Nature Communications, 2024)",
  "target": "T1, streptavidin (UniProt P22629 25-183)",
  "T1 construct": "streptavidin; Plate-coated in the ELISA; covalently immobilised by amine coupling to a CM5 chip in SPR; Commercial streptavidin is often a truncated core form; source: bought: Pierce streptavidin-coated 96 well plate (Thermo Fisher Scientific) for the phage ELISA",
  "T1 sequence (P22629 25-183)": "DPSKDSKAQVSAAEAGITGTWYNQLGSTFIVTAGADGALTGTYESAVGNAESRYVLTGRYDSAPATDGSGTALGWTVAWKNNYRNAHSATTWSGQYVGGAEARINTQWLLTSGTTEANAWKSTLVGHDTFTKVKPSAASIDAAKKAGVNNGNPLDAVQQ",
  "assay": "SPR; Biacore 8K, 25 °C; streptavidin amine-coupled to a CM5 chip; peptides 4.1 – 9000 nM in HBS-EP+ pH 7.4 at 30 µL/min, 180 s association, 600 s dissociation",
  "details": "both partners purified",
  "note": "Positions of bridges follow the written chain, without caps; N, C: chain ends. No end group written: not given here. CCA = cyclopropenone-chloroacetamide linker between the two cysteines",
  "data": [
    {"binder": "CPINIFHPPPDC (linker 1-12 via CCA)", "note": "[synthetic peptide Str1-CCA]", "values": [
      {"measurement": "Kd", "result": 340, "unit": "nM"}
    ]}
  ]
}
